From publication PMC7276988, “Cryo-EM Structure of the Fork Protection Complex Bound to CMG at a Replication Fork” (Molecular Cell, 2020)
Each block holds one binder with its values, some of them ahead of it.

B3: Mcm7 (natural protein, S. cerevisiae)
chain: MSAALPSIQLPVDYNNLFNEITDFLVTFKQDTLSSDATRNENEDENLDAENIEQHLLEKGPKYMAMLQKVANRELNSVIIDLDDILQYQNEKFLQGTQADDLVSAIQQNANHFTELFCRAIDNNMPLPTKEIDYKDDVLDVILNQRRLRNERMLSDRTNEIRSENLMDTTMDPPSSMNDALREVVEDETELFPPNLTRRYFLYFKPLSQNCARRYRKKAISSKPLSVRQIKGDFLGQLITVRGIITRVSDVKPAVEVIAYTCDQCGYEVFQEVNSRTFTPLSECTSEECSQNQTKGQLFMSTRASKFSAFQECKIQELSQQVPVGHIPRSLNIHVNGTLVRSLSPGDIVDVTGIFLPAPYTGFKALKAGLLTETYLEAQFVRQHKKKFASFSLTSDVEERVMELITSGDVYNRLAKSIAPEIYGNLDVKKALLLLLVGGVDKRVGDGMKIRGDINVCLMGDPGVAKSQLLKAICKISPRGVYTTGKGSSGVGLTAAVMKDPVTDEMILEGGALVLADNGICCIDEFDKMDESDRTAIHEVMEQQTISISKAGINTTLNARTSILAAANPLYGRYNPRLSPLDNINLPAALLSRFDILFLMLDIPSRDDDEKLAEHVTYVHMHNKQPDLDFTPVEPSKMREYIAYAKTKRPVMSEAVNDYVVQAYIRLRQDSKREMDSKFSFGQATPRTLLGIIRLSQALAKLRLADMVDIDDVEEALRLVRVSKESLYQETNKSKEDESPTTKIFTIIKKMLQETGKNTLSYENIVKTVRLRGFTMLQLSNCIQEYSYLNVWHLINEGNTLKFVDDGTMDTDQEDSLVSTPKLAPQTTASANVSAQDSDIDLQDA
notes: Mcm7, S. cerevisiae, subunit of CMG; source: S. cerevisiae, overexpressed, purified as part of CMG

Columns and labels:
Test in all cases: cryo-EM structure; reconstituted from purified CMG, fork DNA, Csm3/Tof1, Ctf4, Mrc1 with AMP-PNP; glycerol gradient fixation (glutaraldehyde and BS3)
[1] = biological target: the molecule itself
[2] = biological target: B3; conditions: both partners purified
[3] = biological target: T1, Tof1 (S. cerevisiae, UniProt P53840 1-1238, phosphorylated (sites not given)); conditions: both partners purified
T1 construct: Tof1, S. cerevisiae; residues 13-781 are resolved in the map; The Tof1 chain of m2; source: S. cerevisiae, overexpressed with Csm3, purified as Csm3/Tof1; in XL-MS part of the co-expressed, co-purified complex (yJY74)
T1 sequence: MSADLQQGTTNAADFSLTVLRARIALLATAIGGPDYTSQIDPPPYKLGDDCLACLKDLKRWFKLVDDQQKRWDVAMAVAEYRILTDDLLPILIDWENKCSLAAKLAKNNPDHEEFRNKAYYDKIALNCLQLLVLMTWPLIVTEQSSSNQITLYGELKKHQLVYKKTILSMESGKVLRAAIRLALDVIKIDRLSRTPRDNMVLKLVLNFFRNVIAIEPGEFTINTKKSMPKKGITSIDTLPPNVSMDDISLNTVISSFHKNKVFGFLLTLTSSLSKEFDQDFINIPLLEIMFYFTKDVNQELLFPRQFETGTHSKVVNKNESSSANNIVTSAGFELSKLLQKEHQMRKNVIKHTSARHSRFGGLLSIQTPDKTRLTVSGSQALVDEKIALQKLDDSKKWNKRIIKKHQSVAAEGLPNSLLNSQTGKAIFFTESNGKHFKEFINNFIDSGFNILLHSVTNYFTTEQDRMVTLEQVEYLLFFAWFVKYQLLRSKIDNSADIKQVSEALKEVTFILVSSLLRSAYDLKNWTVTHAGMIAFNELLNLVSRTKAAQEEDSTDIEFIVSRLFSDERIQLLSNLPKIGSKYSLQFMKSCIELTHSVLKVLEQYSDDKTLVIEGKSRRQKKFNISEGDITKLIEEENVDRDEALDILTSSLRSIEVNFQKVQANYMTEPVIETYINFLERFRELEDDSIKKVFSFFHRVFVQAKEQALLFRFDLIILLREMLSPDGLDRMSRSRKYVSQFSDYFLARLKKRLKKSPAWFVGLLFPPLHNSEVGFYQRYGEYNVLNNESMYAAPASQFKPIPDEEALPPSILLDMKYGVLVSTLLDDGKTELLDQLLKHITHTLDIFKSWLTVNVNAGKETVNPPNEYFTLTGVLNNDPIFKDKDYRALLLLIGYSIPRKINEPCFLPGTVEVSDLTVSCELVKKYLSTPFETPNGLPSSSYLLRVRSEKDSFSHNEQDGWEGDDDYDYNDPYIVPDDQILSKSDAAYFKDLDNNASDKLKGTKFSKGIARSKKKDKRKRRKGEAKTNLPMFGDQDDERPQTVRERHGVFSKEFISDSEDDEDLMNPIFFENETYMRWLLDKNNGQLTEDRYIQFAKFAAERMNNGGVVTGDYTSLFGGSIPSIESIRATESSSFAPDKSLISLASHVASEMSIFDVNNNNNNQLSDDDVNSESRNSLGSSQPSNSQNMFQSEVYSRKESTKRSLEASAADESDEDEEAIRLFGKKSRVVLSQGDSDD

B1: Ctf4 (natural protein, S. cerevisiae)
chain: MVSVIDKLVFDFGGKTLVSLAPDNNTLCVANKNGLTKILKTNNPEEEPETLDSSKLVSSIKCYSNSHFLMTTMQGDALRYNIDSSQEELLARFALPLRDCCVIHSGKMAVFGGDDLELILLELDDETHKKHAIKIDEQVSQISYNSQMNILAVSMINGKVQIFSLTSTIPNKVHELNDYIVANSYDDTHRDKILSNMMDDIDKDNDNDLSETADPDENNVADPEFCAANRICTRVAWHPKGLHFALPCADDTVKIFSIKGYSLQKTLSTNLSSTKAHFIDLQFDPLRGTYIAAVDLNNKLTVWNWETSEIHYTREFKRKITNIAWKIQADSKTLDLVLGTWSGSIAIVQNLAESVVSNIPDQSVAESSTKHGLFVDSESDLENLEGNDDINKSDKLFSDITQEANAEDVFTQTHDGPSGLSEKRKYNFEDEEDFIDDDDGAGYISGKKPHNEHSYSRVHKTHSFPISLANTGKFRYMPFSPAGTPFGFTDRRYLTMNEVGYVSTVKNSEQYSITVSFFDVGRFREYHFEDLFGYDLCFLNEKGTLFGQSKTGQIQYRPHDSIHSNWTKIIPLQAGERITSVAATPVRVIVGTSLGYFRSFNQFGVPFAVEKTSPIVALTAQNYRVFSVHYSQFHGLSYSLSELGTSSKRYYKRECPLPMSLPNINSDMKKDANLDYYNFNPMGIKSLFFSSYGDPCIFGSDNTLLLLSKWRSPEESKWLPILDSNMEIWKMSGGKETTDIHVWPLALAYDTLNCILVKGKHIWPEFPLPLPSEMEIRMPVFVKSKLLEENKAILNKKNEIGADTEAEEGEEDKEIQIPVSMAAEEEYLRSKVLSELLTDTLENDGEMYGNENEVLAALNGAYDKALLRLFASACSDQNVEKALSLAHELKQDRALTAAVKISERAELPSLVKKINNIREARYEQQLK
notes: Ctf4, S. cerevisiae; only the C-terminal part is resolved in the map; Homotrimer; also called Ctf4 trimer; Ctf4_(3); source: purified as previously described (Yeeles et al., 2015); also co-expressed with CMG, Csm3/Tof1 and Mrc1 in S. cerevisiae yJY74 and co-purified
- stoichiometry N [1]: 3

- binding result [2]: binds
B2: Csm3 (natural protein, S. cerevisiae)
chain: MDQDFDSLLLGFNDSDSVQKDPTVPNGLDGSVVDPTIADPTAITARKRRPQVKLTAEKLLSDKGLPYVLKNAHKRIRISSKKNSYDNLSNIIQFYQLWAHELFPKAKFKDFMKICQTVGKTDPVLREYRVSLFRDEMGMSFDVGTRETGQDLERQSPMVEEHVTSAEERPIVADSFAQDKRNVNNVDYDNDEDDDIYHLSYRNRRGRVLDERGNNETVLNNVVPPKEDLDALLKTFRVQGPVGLEENEKKLLLGWLDAHRKMEKGSMTEEDVQLIQSLEEWEMNDIEGQHTHYDLLPGGDEFGVDQDELDAMKEMGF
notes: Csm3, S. cerevisiae; residues 46-139 are resolved in the map; The Csm3 chain of m2; source: S. cerevisiae, overexpressed with Tof1, purified as Csm3/Tof1; in XL-MS part of the co-expressed, co-purified complex (yJY74)

Binder: B3
- binding result [3]: binds
